Results as given in the supplement of paper PMC10126150.
± gives the standard deviation of the averaged measurements.

Test system: ATP
Experiment: switch fluorescence ratio, 500 uM ATP over buffer (Cy3 cluster intensity, sum of 5 cycles each) (fold (ratio)); higher = stronger signal-on switching upon ATP binding; sequences stand for … in TCGTCGGCAGCGTCAGATGTGTATAAGAGACAGTTTTTTTTTTTTTTTTTTTTTTTTT…TC
Conditions: aptamer strand: ATP DNA aptamer (quencher-CACCTGGGGGAGTATTGCGGAGGAAGG + anchor), 100 nM annealed; ATP concentration: 500 uM
In short: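 The quencher-labelled ATP aptamer, at 100 nM, was annealed to Cy3-labelled switching-strand clusters on a modified Illumina MiSeq flow-cell. The clusters were imaged in selection buffer, then after 15 min with 500 uM ATP at 22 °C, and this buffer/ATP cycle ran five times with NaOH stripping and re-annealing between runs. Per-cluster fluorescence ratios, summed target-cycle over summed buffer-cycle Cy3 intensity, were averaged per switch-domain sequence. Clusters outside 100-1000 RFU were excluded.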
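Note: ATP exposure 15 min at 22 °C before imaging.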

GGGCTGTCAC gave a switch fluorescence ratio of 0.997 ± 0.013.
GGGCTGTGGG gave a switch fluorescence ratio of 1.01 ± 0.022.
GGGCTTGGGC was tested, and the switch fluorescence ratio was 0.976 ± 0.035.
GGGCTTTGAG gave a switch fluorescence ratio of 0.979 ± 0.038.
Sequence GGGGAAAATT has a switch fluorescence ratio of 0.993 ± 0.036.
With GGGGAAAGGA the switch fluorescence ratio was 0.9896 ± 0.0085.
In the case of GGGGAAATTG, the switch fluorescence ratio is reported as 0.983 ± 0.019.
For GGGGAACAGA, the switch fluorescence ratio was 1.02 ± 0.026.
GGGGAAGAAC gave a switch fluorescence ratio of 1.14 ± 0.18.
For GGGGAAGGAT, the switch fluorescence ratio was 1.05 ± 0.13.
GGGGAATTGT was tested, and the switch fluorescence ratio was 1.02 ± 0.056.
GGGGACCTGG was tested, and the switch fluorescence ratio was 0.9999 ± 0.0046.
GGGGACCTTA was tested, and the switch fluorescence ratio was 0.993 ± 0.028.
GGGGACGGGG was tested, and the switch fluorescence ratio was 1 ± 0.03.
In the case of GGGGACGGGT, the switch fluorescence ratio is reported as 1.01 ± 0.14.
In the case of GGGGAGAATA, the switch fluorescence ratio is reported as 1.01 ± 0.026.
GGGGAGCGAT was tested, and the switch fluorescence ratio was 1.05 ± 0.019.
In the case of GGGGAGGCAT, the switch fluorescence ratio is reported as 0.954 ± 0.027.
GGGGAGGGAG was tested, and the switch fluorescence ratio was 1.0077 ± 0.00081.
GGGGAGGGCA showed a switch fluorescence ratio of 1.02 ± 0.035.
GGGGAGGGTC gave a switch fluorescence ratio of 1.016 ± 0.0055.
GGGGAGGTCG gave a switch fluorescence ratio of 1.03 ± 0.02.
For GGGGAGTCTT, the switch fluorescence ratio was 0.972 ± 0.057.
Sequence GGGGAGTGAC has a switch fluorescence ratio of 1.025 ± 0.0086.
Sequence GGGGAGTGCA has a switch fluorescence ratio of 1 ± 0.035.
For GGGGAGTTGG, the switch fluorescence ratio was 0.969 ± 0.025.
GGGGATACCT was tested, and the switch fluorescence ratio was 1.04 ± 0.023.
GGGGATAGGC gave a switch fluorescence ratio of 1.01 ± 0.023.
In the case of GGGGATATTC, the switch fluorescence ratio is reported as 1 ± 0.023.
Sequence GGGGATCAGC has a switch fluorescence ratio of 0.9912 ± 0.0036.
GGGGATCCAT gave a switch fluorescence ratio of 1.02 ± 0.026.
In the case of GGGGATCGCC, the switch fluorescence ratio is reported as 1.01 ± 0.03.
GGGGATCGGG showed a switch fluorescence ratio of 0.965 ± 0.022.
GGGGATCTTA was tested, and the switch fluorescence ratio was 1 ± 0.031.
GGGGATGATG was tested, and the switch fluorescence ratio was 0.9683 ± 0.0046.
Sequence GGGGATGCGA has a switch fluorescence ratio of 1.09 ± 0.1.
GGGGATGCGC gave a switch fluorescence ratio of 1.02 ± 0.011.
For GGGGATGCTG, the switch fluorescence ratio was 0.902 ± 0.21.
Sequence GGGGATGGAA has a switch fluorescence ratio of 1.02 ± 0.013.
Sequence GGGGATGGCA has a switch fluorescence ratio of 1.02 ± 0.012.
In the case of GGGGATGGTC, the switch fluorescence ratio is reported as 0.962 ± 0.0016.
GGGGATGTAA was tested, and the switch fluorescence ratio was 1.01 ± 0.013.
For GGGGATGTGG, the switch fluorescence ratio was 0.99 ± 0.037.
In the case of GGGGATGTGT, the switch fluorescence ratio is reported as 1 ± 0.035.
For GGGGATTAGA, the switch fluorescence ratio was 0.9846 ± 0.0072.
Sequence GGGGATTGTG has a switch fluorescence ratio of 0.991 ± 0.029.
GGGGCAAAGC was tested, and the switch fluorescence ratio was 0.96 ± 0.085.
For GGGGCAAGGA, the switch fluorescence ratio was 0.987 ± 0.023.
In the case of GGGGCAAGGG, the switch fluorescence ratio is reported as 1.28 ± 0.28.
GGGGCACGCT showed a switch fluorescence ratio of 0.999 ± 0.03.
GGGGCAGCCG gave a switch fluorescence ratio of 1.01 ± 0.059.
GGGGCAGGGG was tested, and the switch fluorescence ratio was 1.05 ± 0.062.
With GGGGCAGTGT the switch fluorescence ratio was 0.991 ± 0.042.
For GGGGCCAAGT, the switch fluorescence ratio was 0.981 ± 0.037.
GGGGCCGGGT gave a switch fluorescence ratio of 0.998 ± 0.02.
In the case of GGGGCCGTGC, the switch fluorescence ratio is reported as 1.01 ± 0.038.
GGGGCCTTGG gave a switch fluorescence ratio of 1.01 ± 0.022.
GGGGCGCGGG gave a switch fluorescence ratio of 1.03 ± 0.033.
GGGGCGCGGT showed a switch fluorescence ratio of 1.025 ± 0.0058.
For GGGGCGGCGA, the switch fluorescence ratio was 1.02 ± 0.047.
GGGGCGGGGA showed a switch fluorescence ratio of 0.996 ± 0.045.
GGGGCGTCAG gave a switch fluorescence ratio of 0.97 ± 0.013.
With GGGGCGTTCG the switch fluorescence ratio was 1 ± 0.071.
Sequence GGGGCTAACG has a switch fluorescence ratio of 1.02 ± 0.03.
In the case of GGGGCTAAGC, the switch fluorescence ratio is reported as 1 ± 0.026.
Work on GGGGCTACTA yielded a switch fluorescence ratio of 1.01 ± 0.014.
Sequence GGGGCTATCG has a switch fluorescence ratio of 1.16 ± 0.24.
In the case of GGGGCTGAGG, the switch fluorescence ratio is reported as 0.93589 ± 0.00088.
GGGGCTGCTT showed a switch fluorescence ratio of 0.9718 ± 0.0035.
Work on GGGGCTGGCG yielded a switch fluorescence ratio of 1.03 ± 0.11.
In the case of GGGGCTTATG, the switch fluorescence ratio is reported as 0.968 ± 0.0079.
GGGGCTTCTA showed a switch fluorescence ratio of 0.957 ± 0.018.
Sequence GGGGCTTTCC has a switch fluorescence ratio of 1.09 ± 0.052.
GGGGGAAACT showed a switch fluorescence ratio of 1.013 ± 0.0073.
Work on GGGGGAAAGT yielded a switch fluorescence ratio of 0.992 ± 0.026.
For GGGGGAACCT, the switch fluorescence ratio was 1.0549 ± 0.00095.
For GGGGGAAGGG, the switch fluorescence ratio was 0.984 ± 0.027.
GGGGGAAGTG gave a switch fluorescence ratio of 0.976 ± 0.026.
Sequence GGGGGAATAT has a switch fluorescence ratio of 1.13 ± 0.39.
GGGGGACACT was tested, and the switch fluorescence ratio was 1.01 ± 0.022.
GGGGGACAGA showed a switch fluorescence ratio of 0.969 ± 0.013.
Sequence GGGGGACCGG has a switch fluorescence ratio of 1.01 ± 0.072.
GGGGGACCTA gave a switch fluorescence ratio of 0.946 ± 0.026.
Work on GGGGGACCTT yielded a switch fluorescence ratio of 1.04 ± 0.061.
Work on GGGGGACGTT yielded a switch fluorescence ratio of 0.981 ± 0.031.
GGGGGACTGT showed a switch fluorescence ratio of 0.938 ± 0.057.
GGGGGAGCAC was tested, and the switch fluorescence ratio was 0.997 ± 0.017.
Work on GGGGGAGCTA yielded a switch fluorescence ratio of 1 ± 0.032.
GGGGGAGCTT showed a switch fluorescence ratio of 0.9828 ± 0.0078.
GGGGGAGGAT showed a switch fluorescence ratio of 1.03 ± 0.057.
With GGGGGAGGCT the switch fluorescence ratio was 0.987 ± 0.034.
With GGGGGAGGGC the switch fluorescence ratio was 1.01 ± 0.031.
GGGGGAGTCC was tested, and the switch fluorescence ratio was 0.985 ± 0.014.
Work on GGGGGAGTGT yielded a switch fluorescence ratio of 0.985 ± 0.026.
GGGGGATCAT gave a switch fluorescence ratio of 0.9921 ± 0.0016.
With GGGGGATGCT the switch fluorescence ratio was 0.975 ± 0.039.
With GGGGGATGTT the switch fluorescence ratio was 0.997 ± 0.026.
GGGGGATTTT gave a switch fluorescence ratio of 0.999 ± 0.027.
For GGGGGCAACA, the switch fluorescence ratio was 0.973 ± 0.03.
GGGGGCAATT showed a switch fluorescence ratio of 0.987 ± 0.021.
GGGGGCAGAG gave a switch fluorescence ratio of 0.991 ± 0.035.
For GGGGGCAGCT, the switch fluorescence ratio was 1 ± 0.027.
For GGGGGCAGGC, the switch fluorescence ratio was 0.964 ± 0.053.
In the case of GGGGGCAGTT, the switch fluorescence ratio is reported as 1 ± 0.013.
In the case of GGGGGCATCG, the switch fluorescence ratio is reported as 1.01 ± 0.018.
GGGGGCCATC was tested, and the switch fluorescence ratio was 1.003 ± 0.0017.
In the case of GGGGGCCCTT, the switch fluorescence ratio is reported as 1.02 ± 0.043.
Work on GGGGGCCGCC yielded a switch fluorescence ratio of 0.988 ± 0.01.
Sequence GGGGGCCTAG has a switch fluorescence ratio of 0.981 ± 0.035.
For GGGGGCGACT, the switch fluorescence ratio was 0.978 ± 0.021.
GGGGGCGCTG gave a switch fluorescence ratio of 1.02 ± 0.028.
With GGGGGCGTTC the switch fluorescence ratio was 1.015 ± 0.005.
GGGGGCTAGG gave a switch fluorescence ratio of 1.02 ± 0.02.
For GGGGGCTGCC, the switch fluorescence ratio was 0.986 ± 0.011.
In the case of GGGGGCTGCT, the switch fluorescence ratio is reported as 0.962 ± 0.029.
GGGGGCTGGT gave a switch fluorescence ratio of 1 ± 0.0022.
GGGGGCTTGT showed a switch fluorescence ratio of 1 ± 0.019.
Work on GGGGGGAATA yielded a switch fluorescence ratio of 1 ± 0.047.
Work on GGGGGGAGAC yielded a switch fluorescence ratio of 1.07 ± 0.19.
GGGGGGATCA showed a switch fluorescence ratio of 0.985 ± 0.026.
GGGGGGCCTC gave a switch fluorescence ratio of 0.981 ± 0.015.
GGGGGGCGTT was tested, and the switch fluorescence ratio was 0.998 ± 0.017.
Work on GGGGGGCTAA yielded a switch fluorescence ratio of 0.984 ± 0.021.
With GGGGGGCTAT the switch fluorescence ratio was 0.976 ± 0.02.
GGGGGGGAG was tested, and the switch fluorescence ratio was 1.02 ± 0.021.
In the case of GGGGGGGCAT, the switch fluorescence ratio is reported as 1.02 ± 0.031.
GGGGGGGCCC was tested, and the switch fluorescence ratio was 1.01 ± 0.026.
In the case of GGGGGGGCCT, the switch fluorescence ratio is reported as 0.999 ± 0.036.
Sequence GGGGGGGCTC has a switch fluorescence ratio of 0.965 ± 0.035.
GGGGGGGGCG showed a switch fluorescence ratio of 1.01 ± 0.052.
For GGGGGGGGGA, the switch fluorescence ratio was 1.01 ± 0.039.
With GGGGGGGTCA the switch fluorescence ratio was 0.994 ± 0.027.
In the case of GGGGGGGTTG, the switch fluorescence ratio is reported as 1.01 ± 0.083.
Work on GGGGGGTAGA yielded a switch fluorescence ratio of 1.02 ± 0.043.
GGGGGGTCCC was tested, and the switch fluorescence ratio was 0.9957 ± 0.0037.
GGGGGGTCT showed a switch fluorescence ratio of 1.09 ± 0.051.
GGGGGGTGAG was tested, and the switch fluorescence ratio was 0.974 ± 0.037.
In the case of GGGGGGTGCA, the switch fluorescence ratio is reported as 1.02 ± 0.018.
GGGGGGTGGC gave a switch fluorescence ratio of 1.05 ± 0.15.
Sequence GGGGGGTGTT has a switch fluorescence ratio of 1.01 ± 0.019.
GGGGGGTTGA gave a switch fluorescence ratio of 1.1 ± 0.2.
With GGGGGGTTTC the switch fluorescence ratio was 1.1 ± 0.2.
In the case of GGGGGGTTTG, the switch fluorescence ratio is reported as 1 ± 0.037.
For GGGGGGTTTT, the switch fluorescence ratio was 1.01 ± 0.059.
With GGGGGTAAGA the switch fluorescence ratio was 0.981 ± 0.028.
In the case of GGGGGTAGTG, the switch fluorescence ratio is reported as 0.9946 ± 0.0063.
GGGGGTATTA was tested, and the switch fluorescence ratio was 0.97014 ± 0.00019.
With GGGGGTATTG the switch fluorescence ratio was 0.99 ± 0.041.
In the case of GGGGGTCCCG, the switch fluorescence ratio is reported as 1 ± 0.012.
GGGGGTCGGT was tested, and the switch fluorescence ratio was 1.01 ± 0.048.
GGGGGTCTGA was tested, and the switch fluorescence ratio was 1 ± 0.024.
For GGGGGTCTGG, the switch fluorescence ratio was 0.9855 ± 0.0097.
GGGGGTGAAT gave a switch fluorescence ratio of 1 ± 0.037.
